Source: PMC5714612 (Cell Reports, 2017)
Blank lines part the entries; values can stand above or below the molecule they belong to.

B2: Kif1A-GFP (natural protein, rat, UniProt F1M4A4 1-1707, looked up)
chain: MAGASVKVAVRVRPFNSREMSRDSKCIIQMSGSTTTIVNPKQPKETPKSFSFDYSYWSHTSPEDINYASQKQVYRDIGEEMLQHAFEGYNVCIFAYGQTGAGKSYTMMGKQEKDQQGIIPQLCEDLFSRINDTTNDNMSYSVEVSYMEIYCERVRDLLNPKNKGNLRVREHPLLGPYVEDLSKLAVTSYNDIQDLMDSGNKARTVAATNMNETSSRSHAVFNIIFTQKRHDAETNITTEKVSKISLVDLAGSERADSTGAKGTRLKEGANINKSLTTLGKVISALAEMDSGPNKNKKKKKTDFIPYRDSVLTWLLRENLGGNSRTAMVAALSPADINYDETLSTLRYADRAKQIRCNAIINEDPNNKLIRELKDEVTRLRDLLYAQGLGDITDTNTVPGGPKLTNALVGMSPSSSLSALSSRAASVSSLHERILFAPGSEEAIERLKETEKIIAELNETWEEKLRRTEAIRMEREALLAEMGVAMREDGGTLGVFSPKKTPHLVNLNEDPLMSECLLYYIKDGVTRVGREDAERRQDIVLSGHFIKEEHCIFRSDSRGGGEAVVTLEPCEGADTYVNGKKVTEPSILRSGNRIIMGKSHVFRFNHPEQARQERERTPCAETPAEPVDWAFAQRELLEKQGIDMKQEMEQRLQELEDQYRREREEATYLLEQQRLDYESKLEALQKQMDSRYYPEVNEEEEEPEDEVQWTERECELALWAFRKWKWYQFTSLRDLLWGNAIFLKEANAISVELKKKVQFQFVLLTDTLYSPLPPDLLPPEAAKDRETRPFPRTIVAVEVQDQKNGATHYWTLEKLRQRLDLMREMYDRAAEVPSSVVEDCDNVVTGGDPFYDRFPWFRLVGRAFVYLSNLLYPVPLVHRVAIVSEKGEVKGFLRVAVQAISADEEAPDYGSGVRQSGTAKISFDDQHFEKFQSESCPVVGMSRSGTSQEELRIVEGQGQGADAGPSADEVNNNTCSAVPPEGLLDSPEKAALDGPLDTALDHLRLGSTFTFRVTVLQASSISAEYADIFCQFNFIHRHDEAFSTEPLKNTGRGPPLGFYHVQNIAVEVTKSFIEYIKSQPIVFEVFGHYQQHPFPPLCKDVLSPLRPSRRHFPRVMPLSKPVPATKLSTMTRPSPGPCHCKYDLLVYFEICELEANGDYIPAVVDHRGGMPCMGTFLLHQGIQRRITVTLLHETGSHIRWKEVRELVVGRIRNTPETDEALIDPNILSLNILSSGYVHPAQDDRQFLDSDIPRTFYQFEAAWDSSMHNSLLLNRVTPYREKIYMTLSAYIEMENCTQPAVITKDFCMVFYSRDAKLPASRSIRNLFGSGSLRATEGNRVTGVYELSLCHVADAGSPGMQRRRRRVLDTSVAYVRGEENLAGWRPRSDSLILDHQWELEKLSLLQEVEKTRHYLLLREKLETTQRPVPEVLSPASSEDSESRSSSGASSPLSAEGQPSPLEVPNERQRELAVKCLRLLMHTFNREYTHSHVCISASESKLSEMSVTLMRDPSMSPLGAATLTPSSTCPSLIEGRYGATDVRTPQPCSRPASPEPELLPELDSKKTPSPVRATETEKEPQRLLVPDIQEIRVSPIVSKKGYLHFLEPHTAGWAKRFVVVRRPYAYMYNSDKDTVERFVLNLSTAQVEYSEDQQAMLKTPNTFAVCTEHRGILLQANSDKDMHDWLYAFNPLLAGTIRSKLSRRRSAQMRV
B3: mCherry-tagged S135A Syt4 (phosphodeficient) (natural protein, rat, UniProt P50232 1-425, looked up)
chain: MAPITTSRVEFDEIPTVVGIFSAFGLVFTVSLFAWICCQRRSAKSNKTPPYKFVHVLKGVDIYPENLSSKKKFGGDDKSEAKRKAALPNLSLHLDLEKRDLNGNFPKTNPKAGSSSDLENVTPKLFPETEKEAVAPESLKSSTSLTSEEKQEKLGTLFLSLEYNFEKKAFVVNIKEAQGLPAMDEQSMTSDPYIKMTILPEKKHKVKTRVLRKTLDPVFDETFTFYGVPYPHIQELSLHFTVLSFDRFSRDDVIGEVLVPLSGIELSDGKMLMTREIIKRNAKKSSGRGELLVSLCYQSTTNTLTVVVLKARHLPKSDVSGLSDPYVKVNLYHAKKRISKKKTHVKKCTPNAVFNELFVFDIPCESLEEISVEFLVLDSERGSRNEVIGRLVLGATAEGSGGGHWKEICDFPRRQIAKWHMLCDG
B4: mCherry-tagged S135E Syt4 (phosphomimetic) (natural protein, rat, UniProt P50232 1-425, looked up)
chain: MAPITTSRVEFDEIPTVVGIFSAFGLVFTVSLFAWICCQRRSAKSNKTPPYKFVHVLKGVDIYPENLSSKKKFGGDDKSEAKRKAALPNLSLHLDLEKRDLNGNFPKTNPKAGSSSDLENVTPKLFPETEKEAVEPESLKSSTSLTSEEKQEKLGTLFLSLEYNFEKKAFVVNIKEAQGLPAMDEQSMTSDPYIKMTILPEKKHKVKTRVLRKTLDPVFDETFTFYGVPYPHIQELSLHFTVLSFDRFSRDDVIGEVLVPLSGIELSDGKMLMTREIIKRNAKKSSGRGELLVSLCYQSTTNTLTVVVLKARHLPKSDVSGLSDPYVKVNLYHAKKRISKKKTHVKKCTPNAVFNELFVFDIPCESLEEISVEFLVLDSERGSRNEVIGRLVLGATAEGSGGGHWKEICDFPRRQIAKWHMLCDG

What was measured:
[1] = target: Kif1A (Kif1A-GFP, GST-tagged full-length Kif1A) (UniProt F1M4A4); assay: co-IP with GFP-Trap beads, Syt4 blotted; settings: reference: S135A; sites S135
[2] = target: T1, Recombinant His-tagged S135E Syt4 (rat, UniProt P50232 1-425, S135E); assay: pull-down
T1 sequence (looked up): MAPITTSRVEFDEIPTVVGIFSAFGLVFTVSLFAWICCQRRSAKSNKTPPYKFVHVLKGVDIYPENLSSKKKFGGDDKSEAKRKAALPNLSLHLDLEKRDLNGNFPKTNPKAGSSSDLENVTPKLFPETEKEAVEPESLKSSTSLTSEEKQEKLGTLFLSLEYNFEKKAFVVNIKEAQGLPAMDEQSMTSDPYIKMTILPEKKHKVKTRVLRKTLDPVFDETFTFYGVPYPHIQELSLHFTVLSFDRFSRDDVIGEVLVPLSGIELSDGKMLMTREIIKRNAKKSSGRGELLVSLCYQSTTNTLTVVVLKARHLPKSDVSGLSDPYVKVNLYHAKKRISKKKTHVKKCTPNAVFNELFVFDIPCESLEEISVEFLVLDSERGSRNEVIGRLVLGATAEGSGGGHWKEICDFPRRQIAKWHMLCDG

[3] = target: B3; assay: co-IP
[4] = target: B4; assay: co-IP
Kif1A-GFP = target: B2; assay: co-IP

other: percent of WT [1]: weaker; reference 134.4 ± 11.1
Molecule: Synaptotagmin-4 (Syt4) (from UniProt P50232) S135E

amount pulled down, percent of WT [2]: 43.6 % of WT
B1: endogenous Kif1A (natural protein, UniProt P33173 1-1695, looked up)
chain: MAGASVKVAVRVRPFNSREMSRDSKCIIQMSGSTTTIVNPKQPKETPKSFSFDYSYWSHTSPEDINYASQKQVYRDIGEEMLQHAFEGYNVCIFAYGQTGAGKSYTMMGKQEKDQQGIIPQLCEDLFSRINDTTNDNMSYSVEVSYMEIYCERVRDLLNPKNKGNLRVREHPLLGPYVEDLSKLAVTSYNDIQDLMDSGNKPRTVAATNMNETSSRSHAVFNIIFTQKRHDAETNITTEKVSKISLVDLAGSERADSTGAKGTRLKEGANINKSLTTLGKVISALAEMDSGPNKNKKKKKTDFIPYRDSVLTWLLRENLGGNSRTAMVAALSPADINYDETLSTLRYADRAKQIRCNAIINEDPNNKLIRELKDEVTRLRDLLYAQGLGDITDMTNALVGMSPSSSLSALSSRAASVSSLHERILFAPGSEEAIERLKETEKIIAELNETWEEKLRRTEAIRMEREALLAEMGVAMREDGGTLGVFSPKKTPHLVNLNEDPLMSECLLYYIKDGVTRVGREDAERRQDIVLSGHFIKEEHCIFRSDSRGGGEAVVTLEPCEGADTYVNGKKVTEPSILRSGNRIIMGKSHVFRFNHPEQARQERERTPCAETPAEPVDWAFAQRELLEKQGIDMKQEMEQRLQELEDQYRREREEATYLLEQQRLDYESKLEALQKQMDSRYYPEVNEEEEEPEDEVQWTERECELALWAFRKWKWYQFTSLRDLLWGNAIFLKEANAISVELKKKVQFQFVLLTDTLYSPLPPDLLPPEAAKDRETRPFPRTIVAVEVQDQKNGATHYWTLEKLRQRLDLMREMYDRAAEVPSSVVEDCDNVVTGGDPFYDRFPWFRLVGRAFVYLSNLLYPVPLVHRVAIVSEKGEVKGFLRVAVQAISADEEAPDYGSGVRQSGTAKISFDDQHFEKFQSESCPVVGMSRSGTSQEELRIVEGQGQGADAGPSADEVNNNTCSAVPPEGLMDSPEKAALDGPLDTALDHLRLGSTFTFRVTVLQASSISAEYADIFCQFNFIHRHDEAFSTEPLKNTGRGPPLGFYHVQNIAVEVTKSFIEYIKSQPIVFEVFGHYQQHPFPPLCKDVLSPLRPSRRHFPRVMPLSKPVPATKLSTMTRPSPGPCHCKYDLLVYFEICELEANGDYIPAVVDHRGACMGTFLLHQGIQRRITVTLLHETGSHIRWKEVRELVVGRIRNTPETDEALIDPNILSLNILSSGYVHPAQDDRVFFGNDTRTFYQFEAAWDSSMHNSLLLNRVTPYREKIYMTLSAYIEMENCTQPAVITKDFCMVFYSRDAKLPASRSIRNLFGSGSLRATEGNRVTGVYELSLCHVADAGSPGMQRRRRRVLDTSVAYVRGEENLAGWRPRSDSLILDHQWELEKLSLLQEVEKTRHYLLLREKLETTQRPGPEVLSPASSEDSESRSSSGASSPLSAEGQPSPLEAPNERQRELAVKCLRLLMHTFNREYTHSHVCISASESKLSEMSVTLMRDPSMSPLGAATLTPSSTCPSLIEGRYGATDVRTPQPCSRPASPEPELLPELDSKKTPSPVRATETEKEPQRLLVPDIQEIRVSPIVSKKGYLHFLEPHTAGWAKRFVVVRRPYAYMYNSDKDTVERFVLNLSTAQVEYSEDQQAMLKTPNTFAVCTEHRGILLQANSDKDMHDWLYAFNPLLAGTIRSKLSRRRSAQMRV

Molecule: B2
amount co-immunoprecipitated, percent of WT [3]: 158 % of WT
amount co-immunoprecipitated, percent of WT [4]: 87 % of WT

Molecule: B3
amount co-immunoprecipitated, percent of WT (Kif1A-GFP): 134 % of WT

Molecule: B4
amount co-immunoprecipitated, percent of WT (Kif1A-GFP): 42.9 % of WT
